Laboratory results published in publication PMC9394474.

B1: unnamed (parent)
chain 1: TIEALFQ
chain 2: not shown

Variants of: B1
Experiment: ITC
Conditions: with partner chain of the complex shown

Row | Variant | Kd
1 | chain 1 T1A | 17 µM
